This passage reports ratio to parent results from article PMC3088709, “Phosphorylation of the Yeast γ-Tubulin Tub4 Regulates Microtubule Function” (PLoS ONE, 2011).

To fix the notation:
B1: Tub4 (yeast gamma-tubulin), wild type, untagged [S. cerevisiae] / Spc97-3HA [S. cerevisiae] (parent complex)
chain 1: MGGEIITLQAGQCGNHVGKFLWSQLAKEHAIGTDGLSQLPDSSTERDDDTKPFFRENSRNKFTPRAIMMDSEPSVIADVENTFRGFFDPRNTWVASDGASAGNSWANGYDIGTRNQDDILNKIDKEIDSTDNFEGFQLLHSVAGGTGSGLGSNLLEALCDRYPKKILTTYSVFPARSSEVVVQSYNTILALRRLIEDSDATVVFDNASLLNISGKVFRNPNIDLQHTNQLISTIISSVTNSIRFPSYMYSSMSSIYSTLIPSPELHFLSPSFTPFTSDYIHDDIAHKGHSSYDVMLDLLDPSNSLVSTAMNNPTYFNVYNTIIGNVEPRQISRAMTKLQQRIKFPSWSSSAMHVNIGRRSPYLPLQPNENEVSGMMLSNMSTVVNVFENACNTFDKVFAKGAFLNNYNVGDLFQSMQNVQDEFAESREVVQSLMEDYVAAEQDSYLDDVLVDDENMVGELEEDLDADGDHKLV
chain 2: MEIKEVDDRAELLRYTNNIPLLGKLVNHQPLWSTNPKLKSFSLEKISAPDQRRVQEALVVKDLLNVLIGLEGTYIRYFNDYEPSDPETPIEFKIAKKMDPSFKTFSRRIVRYGKQYMILTRAYEKWSDTSFGMVLQRFAYEIRRFLEDVYLKTLVERLERDFNKVPNFSIRELEQIINETEVNKQMELLYNIYEEIFREIEERRTNQSSQEDFNNFMDSMKNESSLHLRLMVAFDTTVYPVPKGGAILKIFQQKILENLGDRSSVMFLKKLLNNISQDYCTMLYEWLTQGILNDPYQEFMTYDDLEGKTDNIFDTRDRAWDTQYFIRKDVLLRDCDSEEDKNLLFKMLRTGILLKVVRASLQIPTIPSNSSDITIQEINDFADLMEGSNLELYVDKCYSRANEIFLKLFFQGYDLINVLKHLQQIFLGYQSGHNVLKFLTKNMGELTKHYRNDNNANYDKLLQNFELERQSENPNNLMRQLLMIQFDTETLPQVLSHYLQIYPEVPENNSANDDSDPLMHANNFKNMNAILFDELSKERTGAYHGSNLELYTPKSAIYHLKFDINIPYPLNIIISRTCMIKYQIILRYQLVLQYHSRLLDETWMDLNKTPSWKYRGYSHTVKRRIVRATRVLHAKMNHFIKTIMEYFNQNVIDKEVYSLEKCYRNPTLAVAIQNELEGGLTNIMTNRCLSDLIPLQLQIFDIVYKFCKFIKSMRAKLCQLDPVLYEKHKSGMMKTLNEGYRTNNGGQEDVGYQEDAALELIQKLIEYISNASSIFRKCLINFTQELSTEKFDFYDSSSVDAAGIERVLYSIVPPRSASASSQR

Variants of B1 are the subject of this assay. Briefly: co-immunoprecipitation (anti-HA IP of Spc97-3HA), quantified immunoblot; TUB4-AID SPC97-3HA cells, IAA for 2 h at 30°C; normalized to precipitated Spc97-3HA; parent: 1; read off a plot.
For the variant chain 1 S100E, the ratio to parent is approximately 0.63. Regarding chain 1 S360D, the ratio to parent is approximately 0.41.
